The text below walks through data of patent US20100115639A1 (PIERRE FABRE MEDICAMENT, published 2010).

For assay [1], the target named is c-Met receptor on A549 cells (human, UniProt P08581 25-1390). Kind of assay: cell-based or functional assay.
Assay [2] concerns the target C-Met-Rluc and C-Met-K1100A-YFP co-expressed in CHO stable cell lines (R. reniformis), P08581. The experiment in a line: cell-based or functional assay.
Assay [3] concerns the target T1, recombinant c-Met-Extra-Cellular Domain (ECD) fused to a human IgG1 Fc domain (R&D Systems, 358MT) (human, UniProt P08581 25-932).
T1 construct: extracellular domain; Bought; bivalent (dimeric) fusion, MW 129 kDa as printed; also called c-Met-Fc; c-Met-Fc-Tag His; not shown: human IgG1 Fc domain
The experiment in a line: displacement of [125I]-HGF from immobilized c-Met-Fc (FlashPlate). Background: Loss of bound radioactivity is the signal in a displacement assay; it reports binding, not function.

For assay [4], the target named is T1, recombinant c-Met-Extra-Cellular Domain …. Kind of assay: BIAcore X, Fab as analyte on c-Met-Fc-His captured by anti-His antibody, 25°C. (In general: Surface plasmon resonance follows binding to a sensor surface in real time, without labels.)
Method: (§1) For the assay, an anti-Tag histidine capture antibody was coated on CM5 sensorchips. The running buffer was HBS-EP, the flow rate was 30 μl/min and the test was performed at 25° C. Soluble c-Met (ECD M1)2-Fc-(HHHHHH)₂ antigen was captured on the sensorchip (around 270 RU), and the antibodies to be tested were used in solution as analytes. The sensorship was regenerated using Glycine, HCl pH 1.5 buffer on both flowcells for half a minute.
The target is the same in assay [5]. The experiment in a line: BIAcore X, Fab as analyte on c-Met-Fc-His captured by anti-His antibody, 25°C; column head misprinted.
Method: as §1
In assay [6] the target is T2, recombinant SEMA domain of c-Met (UniProt P08581 27-515, limits assumed).
T2 construct: domain: SEMA; also called SEMA protein
Kind of assay: ELISA, SEMA domain coated at 3 µg/ml, hybridoma supernatants. In general terms: ELISA stands for enzyme-linked immunosorbent assay.
Method: The reaction is left to occur for 5 min at room temperature. The reaction is stopped by the addition of 50 μl/well of a 1 M H₂SO₄ solution and read on a plate reader at 450 nm.

As for “5D5 Mab, generated by Genentech, available at the ATCC (antibody)”, in assay [1], the agonist effect on c-Met phosphorylation (Mab alone, A549 cells) amounted to 58%; the antagonist effect on c-Met phosphorylation in presence of HGF (A549 cells) came to 39%; the inhibition of c-Met phosphorylation (phospho c-Met ELISA, A549 cells + HGF 100 ng/ml, antibody 30 µg/ml) is 42%.

B1: 11E1 murine monoclonal antibody (antibody, V domains shown)
VH: QVQLQQSGAELAKPGASVKMSCKASGYTFTSYWMNWVKQRPGQGLEWIGYINPTTGSTDYNQKLKDKATLTADKSSNTAYMQLSSLTSEDSAVYYCAIGGYGSWFAYWGQGTLVTVSA
VL: QIVLTQSPAIMSASPGEKVTLTCSASSSVSSTYLYWYQQKPGSSPKLWIYTTSILASGVPARFSGSGSGTSYSLTISSMETEDAASYFCHQWSSYPFTFGSGTKLDIK
notes: Used as hybridoma supernatant or purified Mab; also called MAb 11E1; CNCM I-3724
Turning to B1, in assay [1], the “basal effect on c-Met phosphorylation (antibody alone, A549 cells)” value (“basal effect on c-Met phosphorylation” below) is under 20% and the “inhibition of c-Met phosphorylation (phospho c-Met ELISA, A549 cells + HGF 100 ng/ml, antibody 30 µg/ml)” value (“inhibition of c-Met phosphorylation” for short) was determined as 68%. In assay [2], this molecule gave an inhibition of dimerization (BRET signal, CHO cells) of 69%. The IC50 in assay [3] stood at 20 nM.

B2: Fab fragment of mAb 11E1 (papain cleavage) (Fab, V domains shown)
VH: QVQLQQSGAELAKPGASVKMSCKASGYTFTSYWMNWVKQRPGQGLEWIGYINPTTGSTDYNQKLKDKATLTADKSSNTAYMQLSSLTSEDSAVYYCAIGGYGSWFAYWGQGTLVTVSA
VL: QIVLTQSPAIMSASPGEKVTLTCSASSSVSSTYLYWYQQKPGSSPKLWIYTTSILASGVPARFSGSGSGTSYSLTISSMETEDAASYFCHQWSSYPFTFGSGTKLDIK
notes: also called 11E1 Fab
Consider B2, for which, in assay [4], the Half-Life was found to be 4.1 h, the Kd amounted to 0.0414 nM and the kon worked out at 1.13e+06 M⁻¹ s⁻¹. The dissociation rate constant (koff) in assay [5] came to 4.68e-05 s⁻¹.

B3: 224G11 murine monoclonal antibody (antibody, mouse IgG1, V domains shown)
VH: EVQLQQSGPELVKPGASVKISCKTSGYIFTAYTMHWVRQSLGESLDWIGGIKPNNGLANYNQKFKGKATLTVDKSSSTAYMDLRSLTSEDSAVYYCARSEITTEFDYWGQGTALTVSS
VL: DIVLTQSPASLAVSLGQRATISCRASESVDSYANSFMHWYQQKPGQPPKLLIYRASNLESGIPARFSGSGSRTDFTLTINPVEADDVATYYCQQSKEDPLTFGSGTKLEMK
notes: also called CNCM I-3731
Take B3: in assay [1], the “basal effect on c-Met phosphorylation” value is under 20% and the “inhibition of c-Met phosphorylation” value amounted to 54%. The inhibition of dimerization (BRET signal, CHO cells) in assay [2] turned out to be 32%. Besides, in assay [3], the IC50 was 3 nM. Moreover, the binding result in assay [6] is recorded as “no binding”.

B4: Fab fragment of mAb 224G11 (papain cleavage) (Fab, V domains shown)
VH: EVQLQQSGPELVKPGASVKISCKTSGYIFTAYTMHWVRQSLGESLDWIGGIKPNNGLANYNQKFKGKATLTVDKSSSTAYMDLRSLTSEDSAVYYCARSEITTEFDYWGQGTALTVSS
VL: DIVLTQSPASLAVSLGQRATISCRASESVDSYANSFMHWYQQKPGQPPKLLIYRASNLESGIPARFSGSGSRTDFTLTINPVEADDVATYYCQQSKEDPLTFGSGTKLEMK
notes: also called 224G11 Fab
As for B4, in assay [4], the Half-Life stood at 2.5 h, the Kd came to 0.0348 nM and the kon turned out to be 2.04e+06 M⁻¹ s⁻¹. The koff in assay [5] came to 7.79e-05 s⁻¹.

B5: 227H1 murine monoclonal antibody (antibody, mouse IgG1, V domains shown)
VH: EVQLQQSGPELVKPGASMKISCKASGYSFTDYTLNWVKQSHGKTLEWIGLINPYNGGTTYNQKFKGKATLTVDKSSSTAYMELLSLTSEDSAVYYCAREEITKDFDFWGQGTTLTVSS
VL: GIVLTQSPASLAVSLGQRATISCRVSESIDTYGNSFIHWYQQKPGQPPKLLIYRASNLESGIPARFSGSGSRTDFTLTINPVEADDSATYYCQQSNEDPFTFGSGTKLEMK
notes: also called CNCM I-3732
Regarding B5, in assay [1], the “basal effect on c-Met phosphorylation” value was under 20% and the “inhibition of c-Met phosphorylation” value was determined as 65%. Besides, the inhibition of dimerization (BRET signal, CHO cells) in assay [2] was 52%. For the same molecule, in assay [3], the IC50 came to 5.8 nM. Moreover, the binding result in assay [6] is given as “no binding”.

B6: 223C4 murine monoclonal antibody (antibody, mouse IgG1, V domains shown)
VH: EVLLQQSGPELVKPGASVKIPCKASGYTFTDYNMDWVKQSHGMSLEWIGDINPNNGGTIFNQKFKGKATLTVDKSSSTAYMELRSLTSEDTAVYYCARGRYVGYYYAMDYWGQGTSVTVSS
VL: DIQMTQSPASLSVSVGETVTITCRASENIYSNLAWYQQKQGKSPQLLVYAATNLVDGVPSRFSGSGSGTQYSLKINSLQSEDFGSYYCQHFWGPPYTFGGGTKLEIK
notes: also called CNCM I-3786
Consider B6, for which, in assay [1], the “basal effect on c-Met phosphorylation” value was under 20% and the “inhibition of c-Met phosphorylation” value was determined as 80%. The inhibition of dimerization (BRET signal, CHO cells) in assay [2] came out at 55%. Also, the IC50 in assay [3] stood at 2.7 nM. Besides, the binding result in assay [6] is on record as “no binding”.

Usually IC50 stands for the concentration that inhibits the measured activity by half. For orientation: Kd means the equilibrium constant for the complex coming apart. One may read the kon as the rate constant with which the complex forms. What is called koff is a measure of how fast the partners let go of each other.
